Measurements: patent US20200352839

System: Compound E7 (CTP-Cas1-FINA)

Substance: caspase-1
- HPLC analysis after treatment with caspase-1 (cleavage): the compound is cleaved into two moieties, that is, finasteride and the protein transduction domain
